B1: Twister Ribozyme (parent)
chain: AACACUGCCAAUGCCGGUCCCAAGCCCGGAUAAAAGUGGAGGGGGCGG

Variants of: B1
Test: self-cleavage, relative activity (ratio to wild type); higher = more cleavage; co-transcriptional

Variant | self-cleavage
AACACUGCCAAUGCCGGUCCCAACCCCGGAUAAAAGUGGAGGGGGCGU [G24C G48U] | 0.0846
AACACUGCCAAUGCCGGUCCCAACCCCGGAUAAAAGUGGAGGGGGCGA [G24C G48A] | 0.0988
AACACUGCCAAUGCCGGUCCCAACCCCGGAUAAAAGUGGAGGGGGCGC [G24C G48C] | 0.116
AACACUGCCAAUGCCGGUCCCAAGACCGGAUAAGAGUGGAGGGGGCGG [C25A A34G] | 0.1
AACACUGCCAAUGCCGGUCCCAAGACCGGAUAAUAGUGGAGGGGGCGG [C25A A34U] | 0.0738
AACACUGCCAAUGCCGGUCCCAACCCCGGAUAAAAGUGGAGGGGCCGG [G24C G45C] | 0.0828
AACACUGCCAAUGCCGGUCCCAACCCCGGAUAAAAGUGGAGGGGACGG [G24C G45A] | 0.0924
AACACUGCCAAUGCCGGUCCCAAGACCGGACAAAAGUGGAGGGGGCGG [C25A U31C] | 0.138
AACACUGCCAAUGCCGGUCCCAAGACCGGAGAAAAGUGGAGGGGGCGG [C25A U31G] | 0.127
AACACUGCCAAUGCCGGUCCCAAUCACGGAUAAAAGUGGAGGGGGCGG [G24U C26A] | 0.0928
AACACUGCCAAUGCCGGUCCCAAUCGCGGAUAAAAGUGGAGGGGGCGG [G24U C26G] | 0.0895
AACACUGCCAAUGCCGGUCCCAAUCUCGGAUAAAAGUGGAGGGGGCGG [G24U C26U] | 0.122
AACACUGCCAAUGCCGGUCCCAAGACAGGAUAAAAGUGGAGGGGGCGG [C25A C27A] | 0.0772
AACACUGCCAAUGCCGGUCCCAAGACCGGAUAAAAGUGGAGGGGCCGG [C25A G45C] | 0.0975
AACACUGCCAAUGCCGGUCCCAAGACCGGAUAAAAGUGGAGGGGACGG [C25A G45A] | 0.0857
AACACUGCCAAUGCCGGUCCCAAGACCGGAUAAAAGUGGAGCGGGCGG [C25A G42C] | 0.115
AACACUGCCAAUGCCGGUCCCAAGACCGGAUAAAACUGGAGGGGGCGG [C25A G36C] | 0.0709
AACACUGCCAAUGCCGGUCCCAAUCCCGGAUAAUAGUGGAGGGGGCGG [G24U A34U] | 0.116
AACACUGCCAAUGCCGGUCCCAAUCCCGGAUAAAAGGGGAGGGGGCGG [G24U U37G] | 0.092
AACACUGCCAAUGCCGGUCCCAAUCCCGGAUAAAAGCGGAGGGGGCGG [G24U U37C] | 0.0947
AACACUGCCAAUGCCGGUCCCAAGACCGUAUAAAAGUGGAGGGGGCGG [C25A G29U] | 0.24
AACACUGCCAAUGCCGGUCCCAAGACCGCAUAAAAGUGGAGGGGGCGG [C25A G29C] | 0.0958
AACACUGCCAAUGCCGGUCCCAAGACCGAAUAAAAGUGGAGGGGGCGG [C25A G29A] | 0.308
AACACUGCCAAUGCCGGUCCCAAUCCCGGAUAAAAGUGGAGGGGACGG [G24U G45A] | 0.0796
AACACUGCCAAUGCCGGUCCCAAUCCCGGAUAAAAGUGGAGGGGUCGG [G24U G45U] | 0.091
AACACUGCCAAUGCCGGUCCCAAUCCCGGAUAAAAGUGGAGGGGCCGG [G24U G45C] | 0.0947
AACACUGCCAAUGCCGGUCCCAAGGCCGAAUAAAAGUGGAGGGGGCGG [C25G G29A] | 0.564

Variant | self-cleavage
AACACUGCCAAUGCCGGUCCCAAGACCGGAUUAAAGUGGAGGGGGCGG [C25A A32U] | 0.078
AACACUGCCAAUGCCGGUCCCAAGACCGGAUGAAAGUGGAGGGGGCGG [C25A A32G] | 0.0602
AACACUGCCAAUGCCGGUCCCAAUGCCGGAUAAAAGUGGAGGGGGCGG [G24U C25G] | 0.104
AACACUGCCAAUGCCGGUCCCAAUACCGGAUAAAAGUGGAGGGGGCGG [G24U C25A] | 0.115
AACACUGCCAAUGCCGGUCCCAAUUCCGGAUAAAAGUGGAGGGGGCGG [G24U C25U] | 0.0725
AACACUGCCAAUGCCGGUCCCAAUCCCGGAUAAAAGUGGAGAGGGCGG [G24U G42A] | 0.0906
AACACUGCCAAUGCCGGUCCCAAUCCCGGAUAAAAGUGGAGCGGGCGG [G24U G42C] | 0.0781
AACACUGCCAAUGCCGGUCCCAAUCCCGGAUAAAAGUGUAGGGGGCGG [G24U G39U] | 0.0828
AACACUGCCAAUGCCGGUCCCAAGGCCGGAUACAAGUGGAGGGGGCGG [C25G A33C] | 0.227
AACACUGCCAAUGCCGGUCCCAAGGCCGGAUAUAAGUGGAGGGGGCGG [C25G A33U] | 0.246
AACACUGCCAAUGCCGGUCCCAAGGUCGGAUAAAAGUGGAGGGGGCGG [C25G C26U] | 0.0513
AACACUGCCAAUGCCGGUCCCAAGGGCGGAUAAAAGUGGAGGGGGCGG [C25G C26G] | 0.0826
AACACUGCCAAUGCCGGUCCCAACCCCGGAAAAAAGUGGAGGGGGCGG [G24C U31A] | 0.0517
AACACUGCCAAUGCCGGUCCCAAUCCCGGAUAAAAGUCGAGGGGGCGG [G24U G38C] | 0.103
AACACUGCCAAUGCCGGUCCCAAGACCGGAUAAAAGUCGAGGGGGCGG [C25A G38C] | 0.126
AACACUGCCAAUGCCGGUCCCAAGACCGGAUAAAAGUAGAGGGGGCGG [C25A G38A] | 0.0977
AACACUGCCAAUGCCGGUCCCAAGGCCAGAUAAAAGUGGAGGGGGCGG [C25G G28A] | 0.346
AACACUGCCAAUGCCGGUCCCAAGGCCUGAUAAAAGUGGAGGGGGCGG [C25G G28U] | 0.259
AACACUGCCAAUGCCGGUCCCAAUCCCGGAAAAAAGUGGAGGGGGCGG [G24U U31A] | 0.113
AACACUGCCAAUGCCGGUCCCAAUCCCAGAUAAAAGUGGAGGGGGCGG [G24U G28A] | 0.0754
AACACUGCCAAUGCCGGUCCCAAUCCCCGAUAAAAGUGGAGGGGGCGG [G24U G28C] | 0.0992
AACACUGCCAAUGCCGGUCCCAACCCCGGAUAAAAGUGGAGGGGGCAG [G24C G47A] | 0.0965
AACACUGCCAAUGCCGGUCCCAACCCCGGAUAAAAGUGGAGGGGGCCG [G24C G47C] | 0.0946
AACACUGCCAAUGCCGGUCCCAAUCCCGGAUAAAACUGGAGGGGGCGG [G24U G36C] | 0.0879
AACACUGCCAAUGCCGGUCCCAAUCCCGGAUAAAAAUGGAGGGGGCGG [G24U G36A] | 0.124
AACACUGCCAAUGCCGGUCCCAAGACCGGAUAAAAGUGGCGGGGGCGG [C25A A40C] | 0.114
AACACUGCCAAUGCCGGUCCCAAGACCGGAUAAAAGUGGGGGGGGCGG [C25A A40G] | 0.0786

— the RNAGym collection of RNA variant scans (doi:10.7554/elife.80360)
